Residue numbers refer to the chain shown, from its start. Names and notes keep the numbering of the source.
T1: human TIM-3 expressed on cells (human, UniProt Q8TDQ0 22-301)
T1 construct: also called T cell immunoglobulin and mucin domain-3; HAVCR2
T1 sequence: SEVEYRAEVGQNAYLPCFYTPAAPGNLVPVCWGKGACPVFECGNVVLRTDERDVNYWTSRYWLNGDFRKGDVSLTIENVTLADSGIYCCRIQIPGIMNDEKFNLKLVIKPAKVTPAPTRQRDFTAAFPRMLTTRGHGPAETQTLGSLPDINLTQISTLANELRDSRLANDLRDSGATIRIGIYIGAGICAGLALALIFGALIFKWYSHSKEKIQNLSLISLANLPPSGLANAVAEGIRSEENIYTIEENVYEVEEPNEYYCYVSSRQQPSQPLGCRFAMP

T2: recombinant human TIM-1 His (R&D Systems, Cat#1750-TM) (human, UniProt Q96D42 21-295)
T2 construct: also called rhTIM-1 His
T2 sequence (looked up): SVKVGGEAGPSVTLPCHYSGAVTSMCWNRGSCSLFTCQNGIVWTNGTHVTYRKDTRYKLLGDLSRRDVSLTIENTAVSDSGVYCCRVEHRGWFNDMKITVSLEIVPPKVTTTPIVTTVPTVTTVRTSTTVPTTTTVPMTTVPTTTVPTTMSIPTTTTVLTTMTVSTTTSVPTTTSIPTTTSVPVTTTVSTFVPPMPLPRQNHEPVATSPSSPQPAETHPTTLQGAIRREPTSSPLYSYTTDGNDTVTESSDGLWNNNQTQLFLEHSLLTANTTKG

T3: recombinant human OX40 His (Sino Biological, #10481-H08H) (human, UniProt P43489 29-216)
T3 construct: also called rhOX40 His
T3 sequence (looked up): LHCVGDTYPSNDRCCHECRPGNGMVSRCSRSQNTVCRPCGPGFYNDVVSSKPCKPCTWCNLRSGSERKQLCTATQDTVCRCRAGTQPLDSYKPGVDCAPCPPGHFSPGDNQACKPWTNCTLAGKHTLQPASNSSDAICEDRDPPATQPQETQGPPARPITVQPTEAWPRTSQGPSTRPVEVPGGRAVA

T4: recombinant human DR3 Fc (R&D Systems, #943-D3) (human, UniProt Q93038 25-201)
T4 construct: also called rhDR3 Fc; not shown: Fc part
T4 sequence (looked up): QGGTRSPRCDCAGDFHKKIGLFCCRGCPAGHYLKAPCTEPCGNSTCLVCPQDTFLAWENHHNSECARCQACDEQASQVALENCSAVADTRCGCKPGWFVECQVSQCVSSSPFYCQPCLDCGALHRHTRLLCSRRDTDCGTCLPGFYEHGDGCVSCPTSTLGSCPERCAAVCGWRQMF

T5: recombinant mouse TIM-3 Fc (R&D Systems, #1529-TM) (mouse, UniProt Q8VIM0 20-191)
T5 construct: also called rmTIM-3 Fc; not shown: Fc part
T5 sequence (looked up): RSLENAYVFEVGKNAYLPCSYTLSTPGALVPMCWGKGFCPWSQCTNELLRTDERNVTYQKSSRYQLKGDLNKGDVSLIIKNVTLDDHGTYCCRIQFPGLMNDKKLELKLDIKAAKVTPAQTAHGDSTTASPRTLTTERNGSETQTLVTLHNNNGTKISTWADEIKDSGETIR

T6: recombinant human TIM-4 His (R&D, Cat#2929-TM) (human, UniProt Q96H15 25-315)
T6 construct: also called rhTIM-4 His
T6 sequence (looked up): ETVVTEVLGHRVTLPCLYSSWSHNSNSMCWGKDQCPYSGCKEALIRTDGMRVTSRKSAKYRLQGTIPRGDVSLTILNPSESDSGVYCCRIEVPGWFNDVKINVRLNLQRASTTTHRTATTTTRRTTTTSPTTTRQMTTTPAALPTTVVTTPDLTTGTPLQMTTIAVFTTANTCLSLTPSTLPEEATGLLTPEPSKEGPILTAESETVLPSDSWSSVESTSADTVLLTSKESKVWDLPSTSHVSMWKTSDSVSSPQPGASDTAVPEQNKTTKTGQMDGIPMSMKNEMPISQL

T7: recombinant human GITR Fc (R&D Systems, #689-GR) (human, UniProt Q9Y5U5 26-161)
T7 construct: also called rhGITR Fc; not shown: Fc part
T7 sequence (looked up): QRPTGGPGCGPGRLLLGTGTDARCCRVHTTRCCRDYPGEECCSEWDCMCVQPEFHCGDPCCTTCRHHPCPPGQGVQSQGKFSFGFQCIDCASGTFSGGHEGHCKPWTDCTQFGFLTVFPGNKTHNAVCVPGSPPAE

B1: pab2174 (IgG1) (antibody, V domains shown)
VH: not shown
VL: EIVLTQSPATLSLSPGERATLSCRASQSVSSYLAWYQQKPGQAPRLLIYDASNRATGIPARFSGSGSGTDFTLTISRLEPEDFAVYYCQQYGSSPLTFGGGTKVEIK
B2: pab2191 (IgG1) (antibody, V domains shown)
VH: not shown
VL: B1 VL with A9G
B3: pab2180 (IgG1) (antibody, V domains shown)
VH: not shown
VL: B1 VL with A9G, N53S, A60D
B4: pab2179 (IgG1) (antibody, V domains shown)
VH: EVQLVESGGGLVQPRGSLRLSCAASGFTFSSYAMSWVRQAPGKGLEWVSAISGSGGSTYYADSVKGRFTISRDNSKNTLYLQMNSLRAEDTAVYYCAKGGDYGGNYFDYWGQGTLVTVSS
VL: B1 VL with A9G, N53S, A60D
B5: pab2175 (IgG1) (antibody, V domains shown)
VH: not shown
VL: B1 VL with R61S
B6: pab2178 (IgG1) (antibody, V domains shown)
VH: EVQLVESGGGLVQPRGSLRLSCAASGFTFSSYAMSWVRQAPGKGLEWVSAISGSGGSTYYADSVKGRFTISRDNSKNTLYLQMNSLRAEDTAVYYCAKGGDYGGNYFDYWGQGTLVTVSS
VL: B1 VL with R61S
B7: pab2190 (IgG1) (antibody, V domains shown)
VH: not shown
VL: B1 VL with A9G, N53S, A60D
B8: pab2183 (IgG1) (antibody, V domains shown)
VH: not shown
VL: B1 VL with D50G, N53T
B9: pab2188 (IgG1) (antibody, V domains shown)
VH: not shown
VL: B1 VL with R61S
B10: pab2182 (IgG1) (antibody, V domains shown)
VH: not shown
VL: B1 VL with A9G, D50G, N53S, L96I
B11: pab2177 (IgG1) (antibody, V domains shown)
VH: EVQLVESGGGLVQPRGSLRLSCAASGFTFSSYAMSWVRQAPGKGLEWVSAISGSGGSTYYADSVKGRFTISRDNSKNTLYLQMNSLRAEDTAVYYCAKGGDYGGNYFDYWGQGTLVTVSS
VL: B1 VL with A9G
B12: pab2176 (IgG1) (antibody, V domains shown)
VH: not shown
VL: B1 VL with A9G
B13: pab2189 (IgG1) (antibody, V domains shown)
VH: not shown
VL: B1 VL
B14: pab2184 (IgG1) (antibody, V domains shown)
VH: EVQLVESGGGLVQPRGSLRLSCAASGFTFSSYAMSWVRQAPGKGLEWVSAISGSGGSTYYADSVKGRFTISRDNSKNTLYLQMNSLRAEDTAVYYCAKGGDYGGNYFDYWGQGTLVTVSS
VL: B1 VL with A9G, D50G, N53S, L96I
B15: pab2186 (IgG1) (antibody, V domains shown)
VH: not shown
VL: B1 VL with R77S
B16: pab2173 (IgG1) (antibody, V domains shown)
VH: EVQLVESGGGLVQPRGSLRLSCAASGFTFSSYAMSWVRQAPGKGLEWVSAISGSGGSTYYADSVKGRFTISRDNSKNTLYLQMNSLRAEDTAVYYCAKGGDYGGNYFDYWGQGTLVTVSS
VL: B1 VL
B17: pab2192 (IgG1) (antibody, V domains shown)
VH: not shown
VL: B1 VL with A9G, D50G, N53S, L96I
B18: pab2191 (IgG1 variant) (antibody, V domains shown)
VH: not shown
VL: B1 VL with A9G
B19: pab2189 (IgG1 variant) (antibody, V domains shown)
VH: not shown
VL: B1 VL
B20: pab2192 (IgG1 variant) (antibody, V domains shown)
VH: not shown
VL: B1 VL with A9G, D50G, N53S, L96I
B21: pab2190 (IgG1 variant) (antibody, V domains shown)
VH: not shown
VL: B1 VL with A9G, N53S, A60D
B22: pab2184 (IgG1 variant) (antibody, V domains shown)
VH: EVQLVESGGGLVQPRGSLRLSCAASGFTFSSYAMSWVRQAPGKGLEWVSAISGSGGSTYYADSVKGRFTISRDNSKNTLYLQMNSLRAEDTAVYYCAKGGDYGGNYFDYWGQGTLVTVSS
VL: B1 VL with A9G, D50G, N53S, L96I
B23: pab2186 (IgG1 variant) (antibody, V domains shown)
VH: not shown
VL: B1 VL with R77S
B24: pab2188w (IgG1 N297A) (antibody, V domains shown)
VH: not shown
VL: EIVLTQSPATLSLSPGERATLSCRASQSVSSYLAWYQQKPGQAPRLLIYDASNRATGIPASFSGSGSGTDFTLTISRLEPEDFAVYYCQQYGSSPLTFGGGTKVEIKR
B25: AM-2 (IgG1 N297A) (antibody, V domains shown)
VH: EVQLVESGGGLVQPGGSLRLSCAASGFTFRQNAWSWVRRAPGKGLEWVSAISGSGGSTYYADSVKGRFTISRDNSKNTLYLQMNSLRAEDTAVYYCAKGGDYGGNYFDYWGQGTLVTVSS
VL: B24 VL
B26: AM-6 (IgG1 N297A) (antibody, V domains shown)
VH: B25 VH with R30A, Q31R
VL: B24 VL
B27: AM-3 (IgG1 N297A) (antibody, V domains shown)
VH: B25 VH with R30M, Q31S, N32G, A33Q, W34T
VL: B24 VL

Molecular target: T1, human TIM-3 expressed on cells
Assay: flow cytometry, 1624-5 cells expressing human TIM-3

Row | binding result | Binder
1 | binds | B1
2 | binds | B2
3 | binds | B3
4 | binds | B4
5 | binds | B5
6 | binds | B6
7 | binds | B7
8 | binds | B8
9 | binds | B9
10 | binds | B10
11 | binds | B11
12 | binds | B12
13 | binds | B13
14 | binds | B14
15 | binds | B15
16 | binds | B16
17 | binds | B17

Molecular target: T1, human TIM-3 expressed on cells
Assay: flow cytometry, anti-CD3/anti-CD28 activated primary human CD8+ T cells

Row | binding result | Binder
18 | binds | B18
19 | binds | B19
20 | binds | B20
21 | binds | B21
22 | binds | B22
23 | binds | B23

Molecular target: T1, human TIM-3 expressed on cells
Assay: flow cytometry, Jurkat cells ectopically expressing human TIM-3; pab2188w is the weaker comparator

Row | binding result | Binder
24 | binds | B24

Molecular target: T2, recombinant human TIM-1 His (R&D …)
Assay: Luminex suspension array, antigen coupled to beads

Row | Binder | binding result
25 | B25 | no binding (tested: 10000 ng/ml to 0.1 ng/ml)
26 | B24 | no binding (tested: 10000 ng/ml to 0.1 ng/ml)
27 | B26 | no binding (tested: 10000 ng/ml to 0.1 ng/ml)

Molecular target: T3, recombinant human OX40 His (Sino …)
Assay: Luminex suspension array, antigen coupled to beads

Row | Binder | binding result
28 | B25 | no binding (tested: 10000 ng/ml to 0.1 ng/ml)
29 | B24 | no binding (tested: 10000 ng/ml to 0.1 ng/ml)
30 | B26 | no binding (tested: 10000 ng/ml to 0.1 ng/ml)

Molecular target: T4, recombinant human DR3 Fc (R&D Systems, …)
Assay: Luminex suspension array, antigen coupled to beads

Row | Binder | binding result
31 | B25 | no binding (tested: 10000 ng/ml to 0.1 ng/ml)
32 | B24 | no binding (tested: 10000 ng/ml to 0.1 ng/ml)
33 | B26 | no binding (tested: 10000 ng/ml to 0.1 ng/ml)

Molecular target: T5, recombinant mouse TIM-3 Fc (R&D …)
Assay: Luminex suspension array, antigen coupled to beads

Row | Binder | binding result
34 | B25 | no binding (tested: 10000 ng/ml to 0.1 ng/ml)
35 | B24 | no binding (tested: 10000 ng/ml to 0.1 ng/ml)
36 | B26 | no binding (tested: 10000 ng/ml to 0.1 ng/ml)

Molecular target: T8, recombinant human CD137 Fc (in house produced material) (human, UniProt Q07011 24-186)
T8 construct: also called rhCD137 Fc; not shown: Fc part
Assay: Luminex suspension array, antigen coupled to beads

Row | Binder | binding result
37 | B25 | no binding (tested: 10000 ng/ml to 0.1 ng/ml)
38 | B24 | no binding (tested: 10000 ng/ml to 0.1 ng/ml)
39 | B26 | no binding (tested: 10000 ng/ml to 0.1 ng/ml)

Molecular target: T6, recombinant human TIM-4 His (R&D, …)
Assay: Luminex suspension array, antigen coupled to beads

Row | Binder | binding result
40 | B25 | no binding (tested: 10000 ng/ml to 0.1 ng/ml)
41 | B24 | no binding (tested: 10000 ng/ml to 0.1 ng/ml)
42 | B26 | no binding (tested: 10000 ng/ml to 0.1 ng/ml)

Molecular target: T7, recombinant human GITR Fc (R&D Systems, …)
Assay: Luminex suspension array, antigen coupled to beads

Row | Binder | binding result
43 | B25 | no binding (tested: 10000 ng/ml to 0.1 ng/ml)
44 | B24 | no binding (tested: 10000 ng/ml to 0.1 ng/ml)
45 | B26 | no binding (tested: 10000 ng/ml to 0.1 ng/ml)

Molecular target: T1, human TIM-3 expressed on cells
Assay: flow cytometry, Jurkat cells ectopically expressing human TIM-3

Row | binding result | Binder
46 | binds | B25
47 | binds | B26
48 | binds | B27
